Test results reported in patent publication US20100021987.

Assays:
[1] = molecular target: 6xHis-hSUMO-3-X-eGFP, X = R
[2] = molecular target: 6xHis-hSUMO-3-X-eGFP, X = S
[3] = molecular target: 6xHis-hSUMO-3-X-eGFP, X = H
[4] = molecular target: 6xHis-hSUMO-3-X-eGFP, X = K
[5] = molecular target: 6xHis-hSUMO-3-X-eGFP, X = P
[6] = molecular target: 6xHis-hSUMO-3-X-eGFP, X = C
[7] = molecular target: 6xHis-hSUMO-3-X-eGFP, X = G
[8] = molecular target: 6xHis-hSUMO-3-X-eGFP, X = T
[9] = molecular target: 6xHis-hSUMO-3-X-eGFP, X = Q
[10] = molecular target: 6xHis-hSUMO-3-X-eGFP, X = W
[11] = molecular target: 6xHis-hSUMO-3-X-eGFP, X = Y
[12] = molecular target: 6xHis-hSUMO-3-X-eGFP, X = E
[13] = molecular target: 6xHis-hSUMO-3-X-eGFP, X = A
[14] = molecular target: 6xHis-hSUMO-3-X-eGFP, X = F
[15] = molecular target: 6xHis-hSUMO-3-X-eGFP, X = V
[16] = molecular target: 6xHis-hSUMO-3-X-eGFP, X = I
[17] = molecular target: 6xHis-hSUMO-3-X-eGFP, X = D
[18] = molecular target: 6xHis-hSUMO-3-X-eGFP, X = L
[19] = molecular target: 6xHis-hSUMO-3-X-eGFP, X = N

B1: human SENP2 (hSENP2) SUMO protease catalytic domain (protein)
chain: MASLLELTEDMEKEISNALGHGPQDEILSSAFKLRITRGDIQTLKNYHWLNDEVINFYMNLLVERNKKQGYPALHVFSTFFYPKLKSGGYQAVKRWTKGVNLFEQEIILVPIHRKVHWSLVVIDLRKKCLKYLDSMGQKGHRICEILLQYLQDESKTKRNSDLNLLEWTHHSMKPHEIPQQLNGSDCGMFTCKYADYISRDKPITFTQHQMPLFRKKMVWEILHQQLLAAALEHHHHHH
[1]
  Percent cleavage, enzyme:substrate 1:100: 99.7%
  Percent cleavage, enzyme:substrate 1:1000: 98.7%
[2]
  Percent cleavage, enzyme:substrate 1:100: 99.6%
  Percent cleavage, enzyme:substrate 1:1000: 99.1%
[3]
  Percent cleavage, enzyme:substrate 1:100: 100%
  Percent cleavage, enzyme:substrate 1:1000: 98.4%
[4]
  Percent cleavage, enzyme:substrate 1:100: 100%
  Percent cleavage, enzyme:substrate 1:1000: 92.8%
6xHis-AtSUMO2-eGFP
  activity level (grade): +
[5]
  Percent cleavage, enzyme:substrate 1:100: 0%
  Percent cleavage, enzyme:substrate 1:1000: 0%
6xHis-T-SUMO-eGFP
  activity level (grade): +
6xHis-ySmt3-eGFP
  Kcat: Kcat = 0.75
  Kcat, fold difference against yUlp1: about 2-fold difference in Kcat
  Km: Km = 2.72 mM
  activity level (grade): +++++
  cleavage, 2-fold enzyme dilution series, SDS-PAGE; fold against yUlp1: hSENP2 was able to cleave hSUMO-1 and ySmt3 fusions somewhat more effectively (about 2-fold) than yUlp1
  cleavage, time course, SDS-PAGE: both enzymes cleaving hSUMO-1-eGFP poorly and ySmt3-eGFP well
[6]
  Percent cleavage, enzyme:substrate 1:100: 100%
  Percent cleavage, enzyme:substrate 1:1000: 98.5%
[7]
  Percent cleavage, enzyme:substrate 1:100: 100%
  Percent cleavage, enzyme:substrate 1:1000: 98.9%
[8]
  Percent cleavage, enzyme:substrate 1:100: 99%
  Percent cleavage, enzyme:substrate 1:1000: 82%
[9]
  Percent cleavage, enzyme:substrate 1:100: 95.9%
  Percent cleavage, enzyme:substrate 1:1000: 66.7%
[10]
  Percent cleavage, enzyme:substrate 1:100: 100%
  Percent cleavage, enzyme:substrate 1:1000: 99.4%
6xHis-hSUMO-3-eGFP
  Kcat: Kcat = 0.33
  Kcat, fold difference against yUlp1: about 12-fold difference in Kcat
  Km: Km = 2.41 mM
  Percent cleavage, enzyme:substrate 1:100: 99.4%
  Percent cleavage, enzyme:substrate 1:1000: 95.4%
  activity level (grade): +++
  cleavage, 2-fold enzyme dilution series, SDS-PAGE; fold against yUlp1: hSENP2 was able to cleave hSUMO-3-eGFP at least 4-fold better than an identical amount of yUlp1
  cleavage, time course, SDS-PAGE: providing nearly complete cleavage within 2 hrs.
6xHis-AtSUMO1-eGFP
  activity level (grade): +
  cleavage, 2-fold enzyme dilution series, SDS-PAGE: Both hSENP2 and yUlp1 cleaved the AtSUMO1 fusion similarly
[11]
  Percent cleavage, enzyme:substrate 1:100: 100%
  Percent cleavage, enzyme:substrate 1:1000: 98.7%
[12]
  Percent cleavage, enzyme:substrate 1:100: 100%
  Percent cleavage, enzyme:substrate 1:1000: 92.2%
[13]
  Percent cleavage, enzyme:substrate 1:100: 99.6%
  Percent cleavage, enzyme:substrate 1:1000: 92.5%
6xHis-hSUMO-1-eGFP
  activity level (grade): ++
  cleavage, 2-fold enzyme dilution series, SDS-PAGE; fold against yUlp1: hSENP2 was able to cleave hSUMO-1 and ySmt3 fusions somewhat more effectively (about 2-fold) than yUlp1
  cleavage, time course, SDS-PAGE: both enzymes cleaving hSUMO-1-eGFP poorly
[14]
  Percent cleavage, enzyme:substrate 1:100: 100%
  Percent cleavage, enzyme:substrate 1:1000: 98.9%
[15]
  Percent cleavage, enzyme:substrate 1:100: 100%
  Percent cleavage, enzyme:substrate 1:1000: 99.8%
[16]
  Percent cleavage, enzyme:substrate 1:100: 98.4%
  Percent cleavage, enzyme:substrate 1:1000: 56.2%
[17]
  Percent cleavage, enzyme:substrate 1:100: 99.5%
  Percent cleavage, enzyme:substrate 1:1000: 69.8%
[18]
  Percent cleavage, enzyme:substrate 1:100: 98.6%
  Percent cleavage, enzyme:substrate 1:1000: 75.2%
[19]
  Percent cleavage, enzyme:substrate 1:100: 96.2%
  Percent cleavage, enzyme:substrate 1:1000: 98.3%
